# Measured values reported in the DeepSol protein solubility set.
# Test: soluble on expression in E. coli; label from the status in PepcDB or PDB records
row,Sequence,soluble on expression in E. coli
1,MIVSMKKLAQLLLPLLLPFSAEAGGQPDFCKSINHAGGRYTVCSFDPAKNTIRIYDQDHVSGQGYRNFADLSSALWRQHMFSVFAMNGGMYHSDYSPVGLFVENGVERSPVSTRGGWGNFHLLPNGVFYLDGNTAGVLETEAYLAADPKPDFATQSGPMLVIDGKLHPRFLPDSDSLKRRNGVGVSRDGMVHFAISETTVRFYDFGTLFRDVLDAPNALYLDGTISSVDIPAMNRRDQLFSMGPIIAVVDRVPDLEHHHHHH,not soluble
2,MRNIYDLANELERGIRALPEYKNLVEKKEAIATDAEASALFKEFTDFQEDFYAKMQAGTMPTAEEQAAVQELGQKVEANALLKEYLTAQQSLSVYLNDIERIIFKPLQELNN,not soluble
3,MGSDKIHHHHHHMIIRAGYNIAFQCFQETPINLLLSVHPSRAQHVIGEHVIKFSPDVPSHDFTDMFGNVCTRIVAPAGRIDISNDFLIEDTGLPDEVAPGAREIPVAELPDEVMVYLLGSRYCDTDKLATLAWSMFGGIPSGWQRVQAIVDYVHNHITFGYQFARNDRTASEGHAEQIGVCRDFAHLAVTLCRCMNIPARYCTGYLGDIGVPQDPAPMDFSAWFEVYLDGRWYTFDARHNHPRIGRIVIARGRDAADVAISTSFGTANLLNFEVITHEVTDQAAVTDARLQKVA,not soluble
4,MSLSKSDDGDSEESFSISVQSGFEAMSQELCIVMCLKDLTSIVDIKTSSRPAMIGSLTDGSTETFWESGDEDKNKTKNITINCVKGINARYVSVHVDNSRDLGNKVTSMTFLTGKAVEELCRIKQVDLDSRHIGWVTSELPGGDNQIIKIELKGPENTLRVRQVKVLGWKDGESTKIAGQISASVAQQRSCEAETLRVFRLITSQVFGKLISGDAEEGHHHHHH,soluble
5,MSETPLLFQTRDYRGATIEDLNIPLAVSINPTTSIYEAIGIAFENEFTYLPVIHERTKRLLGVINIEELKSNGDKLKRSILAPIVKSYMIWFNQSAKRKYEQENKEVLSSNRTAPKTTILKPRGKRYEVLTPMTPLEKLAEFFNSGNYFAIVTNGHGDFVYGVVTPQDLMKYEQSRPKL,soluble
6,RSRGNFPIYNNTRVTYFPTGETFFDSLKEQLFLAKKYIFLEFFIIAEGQMWGEILSILEKKVSEGVEVRVLFDGMNELSTLSSDYAKRLEQIGIKAKSFLPISPFISTYYNYRDHRKIVVIDGEVSFTGGINLADEYINEVERFGHWKDAGLMLEGEATDSFLILFLQMWSITEKELIIDPYLSDHSLKLPSDGYVIPYGDSPLDTDKIGKNV,not soluble
7,SLLPQAVTQFEELVGMAEALLKGGGTMSTSASTLWRATNNSSPDSFASTCSNSNSNSSSPVSLKPEEEHQTDEKQFQIEKWQIARCNKSKPQKFINDLMQVLYTNEYMATHSLTGAKSSTSRDKAVKPAMNQNEVQEIIGVTKQLFPNTDDVSIRRMIGQKLNNCTKKPNLSKNLNSQDIK,soluble
8,MEEMRVIGLLSSGIDSPVAIHLMASRGAEVYPLHFRQDEIKEKKARKLVSRLKEIHGEKVKDLKVVDALKVQGPVFEKLRELKREKWICIFCKYTMYMVAEKYAREVGAEAIVTGDSLGQVASQTLDNLMVISTATNLPIIRPLIALDKEEIVRIAKEIGTFEISIENEPPCPFLPKFPVVRAGFSQFRKILEEIREVLPK,soluble
9,MGSDKIHHHHHHMGNKPSGRHYFAEGITNRGYISLLPNMMSEWERTYVLMGGPGTGKSTTIKMIGLDLLDRGYEVDFLRSARDPDSMAGVLIRRFNWAILDHYEIAPLHWRAPGVIEHFVDFSKYCNQGKLEQQRLRVLELGEKIKRGQQRIGEILAEEFGGRIRERFYAKADEGRPWLPKLYASDLFKEAKGPWSKAQDALKKIQKSAVQSFFLHGINPEGWLNLAPYFLTDYDQIRFDGEEAHEAMEWVLQEAEQLGQVIDIVLHPLYPDEILGIVFPERNLAIWQGDPEHLEDQGLGCPFSNDLKKALLDTQRLRDKLKAIYTKTVDFDQVDSMKTDLLSSILRDMDKKVHTID,not soluble
10,ELVMTQTPSSVSEPVGGTVTIKCQASQSISSWLSWYQQKPGQPPKLLIYDASNLASGVPSRFMGSGSGTEYTLTISGVQREDAATYYCLGGYPAASYRTAFGGGTELEIIRTVAAPSVFIFPPSDEQLKSGTASVVCLLNNFYPREAKVQWKVDNALQSGNSQESVTEQDSKDSTYSLSSTLTLSKADYEKHKVYACEVTHQGLSSPVTKSFNRGEC,soluble
11,MGSDKIHHHHHHMRALATWQDKCIDSQLLVASLVGLFKQRDLDCDKLLRGTGIFITDIRKPDHLISPKQLARLLDNALAQWPNGDLSFLLGQLWFPSQSGVLTSGMFCARDVKELIYFWHKYHWLTQPWLQTWRWQGEHEWHFLLSLDLGMHRHKQFFIELSLSSFMACFKQLLGQAWRGSICFPYPAPDNLAHYYKYFGMDLRFDAPLCRISMAKNLLRQPSLFANQSLLYSQPENVDTHCAEDAQLPSASQSCIHGEAASPALDIQPLQLPLRPQLNMAKAARQALFAQEFRLGLAAGIRLKLMRRTLSLPEMAQILEISPATLKRRLGEMGLNYGQLADESRLIRALYFLAEPEQDAHSIASSLSFSDASNFRRSFKRWTGQLPGYFRYWLA,not soluble
12,MIFTTQVKYTYDTLSTFPEDMPSREGFTLISDHFGAGMLAPMEVVVNSKESMKSSLENVNGVASVTGPERSKGYQKYTLILKDNPYSNEAMDVVPKVRAAADKGNDVYIAGQTATQYDDRAVTEHDEKVIIPLEHHHHHH,soluble
13,MDKTQSYDIFLIAPPGLEQVLAEEATACGFDEPRVVPGGVETRGPWSEVMRANLVLRGAGRVLVRIGGFPAVHLAQLDKRARKFAWGDFLRPDRPIRVEAVSRKSKIYHAGAAKQRVERAITEELGAPISDEAEIRLMLRIERDFCTFSIDTSGEALHKRGHKEAVGKAPMRETMAALFLRQCGFDGAEPVLDPMCGSGSFVIEAAEWAAGLMPGRSRSFAFEQLAGFDAAQWQSMRNAAGAGGRPESLYSGSDRNAGAIDASRANATRAGVADFCAFHQRPVSDIRPPEGRPGLVIVNPPYGARIGDQARLRSLYGSLGKVLMDRFSGWRVGLITSEMSLARSTRLPFQAPGPVVDHGGIKVRLYQSVRLR,not soluble
14,MQNAEKLDFKITGGWIIDGTGAPRRRADLGVRDGRIAAIGELGAHPARHAWDASGKIVAPGFIDVHGHDDLMFVEKPDLRWKTSQGITTVVVGNCGVSAAPAPLPGNTAAALALLGETPLFADVPAYFAALDAQRPMINVAALVGHANLRLAAMRDPQAAPTAAEQQAMQDMLQAALEAGAVGFSTGLAYQPGAVAQAAELEGLARVAAERRRLHTSHIRNEADGVEAAVEEVLAIGRGTGCATVVSHHKCMMPQNWGRSRATLANIDRAREQGVEVALDIYPYPGSSTILIPERAETIDDIRITWSTPHPECSGEYLADIAARWGCDKTTAARRLAPAGAIYFAMDEDEVKRIFQHPCCMVGSDGLPNDARPHPRLWGSFTRVLGRYVREARLMTLEQAVARMTALPARVFGFAERGVLQPGAWADVVVFDPDTVADRATWDEPTLASVGIAGVLVNGAEVFPQPPADGRPGQVLRAGA,soluble
15,MVSLPVVLIADKLAPSTVAALGDQVEVRWVDGPDRDKLLAAVPEADALLVRSATTVDAEVLAAAPKLKIVARAGVGLDNVDVDAATARGVLVVNAPTSNIHSAAEHALALLLAASRQIPAADASLREHTWKRSSFSGTEIFGKTVGVVGLGRIGQLVAQRIAAFGAYVVAYDPYVSPARAAQLGIELLSLDDLLARADFISVHLPKTPETAGLIDKEALAKTKPGVIIVNAARGGLVDEAALADAITGGHVRAAGLDVFATEPCTDSPLFELAQVVVTPHLGASTAEAQDRAGTDVAESVRLALAGEFVPDAVNVGGGVVNEEVAPWLDLVRKLGVLAGVLSDELPVSLSVQVRGELAAEEVEVLRLSALRGLFSAVIEDAVTFVNAPALAAERGVTAEICKASESPNHRSVVDVRAVGADGSVVTVSGTLYGPQLSQKIVQINGRHFDLRAQGINLIIHYVDRPGALGKIGTLLGTAGVNIQAAQLSEDAEGPGATILLRLDQDVPDDVRTAIAAAVDAYKLEVVDLS,soluble
16,MSQPRTVTVLGATGSIGHSTLDLIERNLDRYQVIALTANRNVKDLADAAKRTNAKRAVIADPSLYNDLKEALAGSSVEAAAGADALVEAAMMGADWTMAAIIGCAGLKATLAAIRKGKTVALANKESLVSAGGLMIDAVREHGTTLLPVDSEHNAIFQCFPHHNRDYVRRIIITASGGPFRTTSLAEMATVTPERAVQHPNWSMGAKISIDSATMMNKGLELIEAFHLFQIPLEKFEILVHPQSVIHSMVEYLDGSILAQIGSPDMRTPIGHTLAWPKRMETPAESLDFTKLRQMDFEAPDYERFPALTLAMESIKSGGARPAVMNAANEIAVAAFLDKKIGFLDIAKIVEKTLDHYTPATPSSLEDVFAIDNEARIQAAALMESLPA,soluble
17,MSLDAENRAFYKIFTLKNNNLCKNSTLLEKIFKNNVEEFDFSLVKQNLEHEKNCVITSTMNQTIFFENMNSKEMGNKAYSFFNQTVLNNKGNTSLEEQISDIFDRCVYMNAEKSSSYIKLLEQDYNQVDMFVSLIFIGPYRHNLILITPVTLHLTLIPKNVKNNSFKNLFSGDMHFNMVTMTHLTEGHHHHHH,soluble
18,MSLFKIRMPETVAEGTRLALRAFSLVVAVDERGGIGDGRSIPWNVPEDMKFFRDVTTKLRGKNVKPSPAKRNAVVMGRKTWDSIPPKFRPLPGRLNVVLSSTLTTQHLLDGLPDEEKRNLHADSIVAVNGGLEQALQLLASPNYTPSIETVYCIGGGSVYAEALRPPCVHLLQAIYRTTIRASESSCSVFFRVPESGTEAAAGIEWQRETISEELTSANGNETKYYFEKLIPRNREEEQYLSLVDRIIREGNVKHDRTGVGTLSIFGAQMRFSLRNNRLPLLTTKRVFWRGVCEELLWFLRGETYAKKLSDKGVHIWDDNGSRAFLDSRGLTEYEEMDLGPVYGFQWRHFGAAYTHHDANYDGQGVDQIKAIVETLKTNPDDRRMLFTAWNPSALPRMALPPCHLLAQFYVSNGELSCMLYQRSCDMGLGVPFNIASYALLTILIAKATGLRPGELVHTLGDAHVYSNHVEPCNEQLKRVPRAFPYLVFRREREFLEDYEEGDMEVIDYAPYPPISMKMAV,soluble
19,MATKKATMIIEKDFKIAEIDKRIYGSFIEHLGRAVYGGIYEPGHPQADENGFRQDVIELVKELQVPIIRYPGGNFVSGYNWEDGVGPKEQRPRRLDLAWKSVETNEIGLNEFMDWAKMVGAEVNMAVNLGTRGIDAARNLVEYCNHPSGSYYSDLRIAHGYKEPHKIKTWCLGNEMDGPWQIGHKTAVEYGRIACEAAKVMKWVDPTIELVVCGSSNRNMPTFAEWEATVLDHTYDHVDYISLHQYYGNRDNDTANYLALSLEMDDFIRSVVAIADYVKAKKRSKKTIHLSFDEWNVWYHSNEADKLIEPWTVAPPLLEDIYNFEDALLVGCMLITLMKHADRVKIACLAQLVNVIAPIMTEKNGPAWKQTIYYPFMHASVYGRGVALHPVISSPKYDSKDFTDVPYLESIAVYNEEKEEVTIFAVNRDMEDALLLECDVRSFEDYRVIEHIVLEHDNVKQTNSAQSSPVVPHRNGDAQLSDRKVSATLPKLSWNVIRLGKR,soluble
20,MHHHHHHMKNVIFEDEEKSKMLARLLKSSHPEDLRAANKLIKEMVQEDQKRMEKISKRVNAIEEVNNNVKLLTEMVMSHSQGGAAAGSSEDLMKELYQRCERMRPTLFRLASDTEDNDEALAEILQANDNLTQVINLYKQLVRGEEVNGDATAGSIPG,soluble
21,MSLKKTEKAYEVKRAFNNNIVLVDDDEKEIILFAKGIGFNCKKGSIIPENTNIEKIFTIQDENNIANFRRVVGSNDEKFIAFCEELILEISRDFSEELNEIIHIGLIDHISFAIERMKKGEILRNPFLVEIETLYPKEFEAATKMVKKLEDFTGVSIVDDEIGFIAMHIHSARTTGKISHTIKFTYIANTAVEYIEDAFNIEVDRTSLSYARFISHLRFAIERLINNTPVKNELLSIIKLKYPESFKVAEEIGKAINEDFSLEVAEDEIGYLALHVERIRKNEGHHHHHH,soluble
